Experimental data: patent US20180155451A1 (published 2018)

B1: GpH7-B3 variant L328_06M/GpL16-k0 (antibody, human IgG1, kappa)
heavy: not shown
light: DIVMTQSPLSLPVTPGEPASISCQASESLVHSNRNTYLHWYLQKPGQSPQLLIYKVSNRFSGVPDRFSGSGSGTDFTLKISRVEAEDVGVYYCSQNTHVPPTFGQGTKVEIERTVAAPSVFIFPPSDEQLKSGTASVVCLLNNFYPREAKVQWKVDNALQSGNSQESVTEQDSKDSTYSLSSTLTLSKADYEKHKVYACEVTHQGLSSPVTKSFNRGEC
notes: homodimerized; mutation in both H chains; also called Ho Ab
B2: GpH7-B3 variant S267_01G/GpL16-k0 (antibody, human IgG1, kappa)
heavy: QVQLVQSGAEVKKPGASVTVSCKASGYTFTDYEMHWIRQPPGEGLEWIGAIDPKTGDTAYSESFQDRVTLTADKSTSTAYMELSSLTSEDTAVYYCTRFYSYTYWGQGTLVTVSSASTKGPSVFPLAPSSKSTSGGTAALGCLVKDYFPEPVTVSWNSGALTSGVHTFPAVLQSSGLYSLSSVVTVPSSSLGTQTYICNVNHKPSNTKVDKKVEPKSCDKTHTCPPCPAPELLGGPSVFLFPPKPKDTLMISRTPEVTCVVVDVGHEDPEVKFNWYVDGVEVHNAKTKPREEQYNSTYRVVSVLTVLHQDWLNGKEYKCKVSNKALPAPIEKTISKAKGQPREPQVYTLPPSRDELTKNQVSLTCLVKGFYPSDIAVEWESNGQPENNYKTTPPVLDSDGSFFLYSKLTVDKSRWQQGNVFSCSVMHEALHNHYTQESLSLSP
light: DIVMTQSPLSLPVTPGEPASISCQASESLVHSNRNTYLHWYLQKPGQSPQLLIYKVSNRFSGVPDRFSGSGSGTDFTLKISRVEAEDVGVYYCSQNTHVPPTFGQGTKVEIERTVAAPSVFIFPPSDEQLKSGTASVVCLLNNFYPREAKVQWKVDNALQSGNSQESVTEQDSKDSTYSLSSTLTLSKADYEKHKVYACEVTHQGLSSPVTKSFNRGEC
notes: as for B1
B3: GpH7-B3 variant S239_01G/GpL16-k0 (antibody, human IgG1, kappa)
heavy: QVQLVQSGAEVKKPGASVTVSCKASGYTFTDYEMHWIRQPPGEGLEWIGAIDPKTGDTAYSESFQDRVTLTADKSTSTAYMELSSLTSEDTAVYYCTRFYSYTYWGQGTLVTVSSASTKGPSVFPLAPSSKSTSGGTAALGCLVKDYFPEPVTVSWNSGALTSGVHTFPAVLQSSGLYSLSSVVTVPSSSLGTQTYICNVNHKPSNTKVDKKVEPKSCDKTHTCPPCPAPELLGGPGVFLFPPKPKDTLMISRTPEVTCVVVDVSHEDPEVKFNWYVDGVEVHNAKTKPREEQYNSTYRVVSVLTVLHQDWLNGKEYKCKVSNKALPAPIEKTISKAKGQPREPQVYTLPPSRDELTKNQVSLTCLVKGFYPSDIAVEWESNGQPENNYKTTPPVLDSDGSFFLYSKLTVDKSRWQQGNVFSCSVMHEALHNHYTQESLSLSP
light: DIVMTQSPLSLPVTPGEPASISCQASESLVHSNRNTYLHWYLQKPGQSPQLLIYKVSNRFSGVPDRFSGSGSGTDFTLKISRVEAEDVGVYYCSQNTHVPPTFGQGTKVEIERTVAAPSVFIFPPSDEQLKSGTASVVCLLNNFYPREAKVQWKVDNALQSGNSQESVTEQDSKDSTYSLSSTLTLSKADYEKHKVYACEVTHQGLSSPVTKSFNRGEC
notes: as for B1
B4: GpH7-B3 variant L328_07I/GpL16-k0 (antibody, human IgG1, kappa)
heavy: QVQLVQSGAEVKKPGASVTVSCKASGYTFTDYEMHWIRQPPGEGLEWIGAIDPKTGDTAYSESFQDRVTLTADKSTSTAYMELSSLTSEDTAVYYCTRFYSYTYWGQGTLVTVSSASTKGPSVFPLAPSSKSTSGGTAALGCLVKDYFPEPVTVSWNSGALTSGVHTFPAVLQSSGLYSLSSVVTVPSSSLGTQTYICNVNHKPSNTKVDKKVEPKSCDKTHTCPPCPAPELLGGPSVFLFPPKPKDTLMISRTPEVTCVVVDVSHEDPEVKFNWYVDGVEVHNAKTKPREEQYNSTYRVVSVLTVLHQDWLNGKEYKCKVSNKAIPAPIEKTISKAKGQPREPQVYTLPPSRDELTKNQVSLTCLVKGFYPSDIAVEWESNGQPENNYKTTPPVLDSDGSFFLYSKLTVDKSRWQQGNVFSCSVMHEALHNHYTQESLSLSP
light: DIVMTQSPLSLPVTPGEPASISCQASESLVHSNRNTYLHWYLQKPGQSPQLLIYKVSNRFSGVPDRFSGSGSGTDFTLKISRVEAEDVGVYYCSQNTHVPPTFGQGTKVEIERTVAAPSVFIFPPSDEQLKSGTASVVCLLNNFYPREAKVQWKVDNALQSGNSQESVTEQDSKDSTYSLSSTLTLSKADYEKHKVYACEVTHQGLSSPVTKSFNRGEC
notes: as for B1
B5: GpH7-B3 variant P238_08L/GpL16-k0 (antibody, human IgG1, kappa)
heavy: not shown
light: DIVMTQSPLSLPVTPGEPASISCQASESLVHSNRNTYLHWYLQKPGQSPQLLIYKVSNRFSGVPDRFSGSGSGTDFTLKISRVEAEDVGVYYCSQNTHVPPTFGQGTKVEIERTVAAPSVFIFPPSDEQLKSGTASVVCLLNNFYPREAKVQWKVDNALQSGNSQESVTEQDSKDSTYSLSSTLTLSKADYEKHKVYACEVTHQGLSSPVTKSFNRGEC
notes: as for B1
B6: GpH7-B3 variant S267_07I/GpL16-k0 (antibody, human IgG1, kappa)
heavy: not shown
light: DIVMTQSPLSLPVTPGEPASISCQASESLVHSNRNTYLHWYLQKPGQSPQLLIYKVSNRFSGVPDRFSGSGSGTDFTLKISRVEAEDVGVYYCSQNTHVPPTFGQGTKVEIERTVAAPSVFIFPPSDEQLKSGTASVVCLLNNFYPREAKVQWKVDNALQSGNSQESVTEQDSKDSTYSLSSTLTLSKADYEKHKVYACEVTHQGLSSPVTKSFNRGEC
notes: as for B1
B7: GpH7-B3 variant T335_19Q/GpL16-k0 (antibody, human IgG1, kappa)
heavy: not shown
light: DIVMTQSPLSLPVTPGEPASISCQASESLVHSNRNTYLHWYLQKPGQSPQLLIYKVSNRFSGVPDRFSGSGSGTDFTLKISRVEAEDVGVYYCSQNTHVPPTFGQGTKVEIERTVAAPSVFIFPPSDEQLKSGTASVVCLLNNFYPREAKVQWKVDNALQSGNSQESVTEQDSKDSTYSLSSTLTLSKADYEKHKVYACEVTHQGLSSPVTKSFNRGEC
notes: as for B1
B8: GpH7-B3 variant V266_06M/GpL16-k0 (antibody, human IgG1, kappa)
heavy: not shown
light: DIVMTQSPLSLPVTPGEPASISCQASESLVHSNRNTYLHWYLQKPGQSPQLLIYKVSNRFSGVPDRFSGSGSGTDFTLKISRVEAEDVGVYYCSQNTHVPPTFGQGTKVEIERTVAAPSVFIFPPSDEQLKSGTASVVCLLNNFYPREAKVQWKVDNALQSGNSQESVTEQDSKDSTYSLSSTLTLSKADYEKHKVYACEVTHQGLSSPVTKSFNRGEC
notes: as for B1
B9: GpH7-B3 variant T335_09D/GpL16-k0 (antibody, human IgG1, kappa)
heavy: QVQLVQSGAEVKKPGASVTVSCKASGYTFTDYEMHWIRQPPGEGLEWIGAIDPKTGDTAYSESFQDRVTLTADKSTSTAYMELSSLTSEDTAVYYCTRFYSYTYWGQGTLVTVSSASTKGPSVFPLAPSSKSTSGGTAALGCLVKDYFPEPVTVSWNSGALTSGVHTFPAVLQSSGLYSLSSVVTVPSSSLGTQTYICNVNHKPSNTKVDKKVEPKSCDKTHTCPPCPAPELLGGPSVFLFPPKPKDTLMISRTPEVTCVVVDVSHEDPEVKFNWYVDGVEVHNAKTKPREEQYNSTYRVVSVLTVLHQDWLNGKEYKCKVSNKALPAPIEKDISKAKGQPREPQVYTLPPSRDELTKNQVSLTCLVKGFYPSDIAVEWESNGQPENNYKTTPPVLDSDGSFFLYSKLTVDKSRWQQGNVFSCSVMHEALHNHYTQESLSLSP
light: DIVMTQSPLSLPVTPGEPASISCQASESLVHSNRNTYLHWYLQKPGQSPQLLIYKVSNRFSGVPDRFSGSGSGTDFTLKISRVEAEDVGVYYCSQNTHVPPTFGQGTKVEIERTVAAPSVFIFPPSDEQLKSGTASVVCLLNNFYPREAKVQWKVDNALQSGNSQESVTEQDSKDSTYSLSSTLTLSKADYEKHKVYACEVTHQGLSSPVTKSFNRGEC
notes: as for B1
B10: GpH7-B3 variant S337_14T/GpL16-k0 (antibody, human IgG1, kappa)
heavy: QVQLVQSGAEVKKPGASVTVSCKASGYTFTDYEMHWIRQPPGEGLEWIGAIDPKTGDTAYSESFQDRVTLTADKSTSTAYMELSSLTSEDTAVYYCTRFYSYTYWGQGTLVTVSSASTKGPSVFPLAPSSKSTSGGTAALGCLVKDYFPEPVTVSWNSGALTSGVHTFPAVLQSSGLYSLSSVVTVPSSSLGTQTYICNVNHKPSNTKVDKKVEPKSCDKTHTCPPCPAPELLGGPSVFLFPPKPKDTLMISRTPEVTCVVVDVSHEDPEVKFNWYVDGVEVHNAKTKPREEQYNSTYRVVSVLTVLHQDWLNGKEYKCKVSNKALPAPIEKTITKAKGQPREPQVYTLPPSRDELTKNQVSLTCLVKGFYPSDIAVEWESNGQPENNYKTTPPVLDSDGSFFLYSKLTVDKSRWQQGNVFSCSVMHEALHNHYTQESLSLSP
light: DIVMTQSPLSLPVTPGEPASISCQASESLVHSNRNTYLHWYLQKPGQSPQLLIYKVSNRFSGVPDRFSGSGSGTDFTLKISRVEAEDVGVYYCSQNTHVPPTFGQGTKVEIERTVAAPSVFIFPPSDEQLKSGTASVVCLLNNFYPREAKVQWKVDNALQSGNSQESVTEQDSKDSTYSLSSTLTLSKADYEKHKVYACEVTHQGLSSPVTKSFNRGEC
notes: as for B1
B11: GpH7-B3 variant L328_15Y/GpL16-k0 (antibody, human IgG1, kappa)
heavy: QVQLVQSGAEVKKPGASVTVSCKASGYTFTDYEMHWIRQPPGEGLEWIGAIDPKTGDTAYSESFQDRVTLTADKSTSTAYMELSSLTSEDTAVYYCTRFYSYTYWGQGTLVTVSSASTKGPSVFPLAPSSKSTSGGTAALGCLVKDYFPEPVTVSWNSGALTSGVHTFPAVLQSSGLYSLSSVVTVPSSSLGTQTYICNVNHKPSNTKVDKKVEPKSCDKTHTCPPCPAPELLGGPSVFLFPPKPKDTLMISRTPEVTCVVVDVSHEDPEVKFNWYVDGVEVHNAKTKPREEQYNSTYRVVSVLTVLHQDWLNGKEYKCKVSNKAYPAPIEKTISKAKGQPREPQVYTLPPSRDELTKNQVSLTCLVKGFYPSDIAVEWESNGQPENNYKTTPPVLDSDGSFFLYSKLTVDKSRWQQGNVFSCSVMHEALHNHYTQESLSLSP
light: DIVMTQSPLSLPVTPGEPASISCQASESLVHSNRNTYLHWYLQKPGQSPQLLIYKVSNRFSGVPDRFSGSGSGTDFTLKISRVEAEDVGVYYCSQNTHVPPTFGQGTKVEIERTVAAPSVFIFPPSDEQLKSGTASVVCLLNNFYPREAKVQWKVDNALQSGNSQESVTEQDSKDSTYSLSSTLTLSKADYEKHKVYACEVTHQGLSSPVTKSFNRGEC
notes: as for B1
B12: GpH7-B3 variant T335_18N/GpL16-k0 (antibody, human IgG1, kappa)
heavy: not shown
light: DIVMTQSPLSLPVTPGEPASISCQASESLVHSNRNTYLHWYLQKPGQSPQLLIYKVSNRFSGVPDRFSGSGSGTDFTLKISRVEAEDVGVYYCSQNTHVPPTFGQGTKVEIERTVAAPSVFIFPPSDEQLKSGTASVVCLLNNFYPREAKVQWKVDNALQSGNSQESVTEQDSKDSTYSLSSTLTLSKADYEKHKVYACEVTHQGLSSPVTKSFNRGEC
notes: as for B1
B13: GpH7-B3 variant T335_06M/GpL16-k0 (antibody, human IgG1, kappa)
heavy: not shown
light: DIVMTQSPLSLPVTPGEPASISCQASESLVHSNRNTYLHWYLQKPGQSPQLLIYKVSNRFSGVPDRFSGSGSGTDFTLKISRVEAEDVGVYYCSQNTHVPPTFGQGTKVEIERTVAAPSVFIFPPSDEQLKSGTASVVCLLNNFYPREAKVQWKVDNALQSGNSQESVTEQDSKDSTYSLSSTLTLSKADYEKHKVYACEVTHQGLSSPVTKSFNRGEC
notes: as for B1
B14: GpH7-B3 variant S239_09D/GpL16-k0 (antibody, human IgG1, kappa)
heavy: not shown
light: DIVMTQSPLSLPVTPGEPASISCQASESLVHSNRNTYLHWYLQKPGQSPQLLIYKVSNRFSGVPDRFSGSGSGTDFTLKISRVEAEDVGVYYCSQNTHVPPTFGQGTKVEIERTVAAPSVFIFPPSDEQLKSGTASVVCLLNNFYPREAKVQWKVDNALQSGNSQESVTEQDSKDSTYSLSSTLTLSKADYEKHKVYACEVTHQGLSSPVTKSFNRGEC
notes: homodimerized; mutation in both H chains; also called Ho Ab; GpH7-B3-06-09D/GpL16-k0
B15: GpH7-B3 variant T335_20W/GpL16-k0 (antibody, human IgG1, kappa)
heavy: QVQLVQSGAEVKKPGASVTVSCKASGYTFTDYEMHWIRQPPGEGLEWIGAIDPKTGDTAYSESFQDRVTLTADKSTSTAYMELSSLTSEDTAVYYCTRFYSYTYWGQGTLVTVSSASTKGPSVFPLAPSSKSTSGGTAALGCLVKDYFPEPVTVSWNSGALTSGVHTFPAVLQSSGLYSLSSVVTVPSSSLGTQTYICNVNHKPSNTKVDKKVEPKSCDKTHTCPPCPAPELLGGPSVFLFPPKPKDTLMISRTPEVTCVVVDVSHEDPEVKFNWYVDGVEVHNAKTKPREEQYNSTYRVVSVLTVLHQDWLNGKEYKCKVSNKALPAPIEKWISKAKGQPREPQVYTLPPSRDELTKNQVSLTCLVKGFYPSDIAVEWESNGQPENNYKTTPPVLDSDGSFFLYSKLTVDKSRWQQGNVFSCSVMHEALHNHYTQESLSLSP
light: DIVMTQSPLSLPVTPGEPASISCQASESLVHSNRNTYLHWYLQKPGQSPQLLIYKVSNRFSGVPDRFSGSGSGTDFTLKISRVEAEDVGVYYCSQNTHVPPTFGQGTKVEIERTVAAPSVFIFPPSDEQLKSGTASVVCLLNNFYPREAKVQWKVDNALQSGNSQESVTEQDSKDSTYSLSSTLTLSKADYEKHKVYACEVTHQGLSSPVTKSFNRGEC
notes: as for B1
B16: GpH7-B3 variant T335_04F/GpL16-k0 (antibody, human IgG1, kappa)
heavy: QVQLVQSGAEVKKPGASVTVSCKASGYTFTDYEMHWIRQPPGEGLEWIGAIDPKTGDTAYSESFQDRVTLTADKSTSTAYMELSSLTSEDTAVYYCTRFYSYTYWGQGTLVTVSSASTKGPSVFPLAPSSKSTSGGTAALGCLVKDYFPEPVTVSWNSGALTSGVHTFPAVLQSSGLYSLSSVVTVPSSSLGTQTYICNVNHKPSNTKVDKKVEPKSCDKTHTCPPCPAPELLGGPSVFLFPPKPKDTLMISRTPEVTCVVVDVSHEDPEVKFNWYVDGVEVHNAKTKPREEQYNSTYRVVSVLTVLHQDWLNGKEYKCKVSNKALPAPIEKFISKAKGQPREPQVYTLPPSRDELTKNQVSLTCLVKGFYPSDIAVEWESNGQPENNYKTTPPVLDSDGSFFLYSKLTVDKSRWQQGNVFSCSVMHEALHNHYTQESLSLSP
light: DIVMTQSPLSLPVTPGEPASISCQASESLVHSNRNTYLHWYLQKPGQSPQLLIYKVSNRFSGVPDRFSGSGSGTDFTLKISRVEAEDVGVYYCSQNTHVPPTFGQGTKVEIERTVAAPSVFIFPPSDEQLKSGTASVVCLLNNFYPREAKVQWKVDNALQSGNSQESVTEQDSKDSTYSLSSTLTLSKADYEKHKVYACEVTHQGLSSPVTKSFNRGEC
notes: as for B1
B17: GpH7-B3 variant Y296_20W/GpL16-k0 (antibody, human IgG1, kappa)
heavy: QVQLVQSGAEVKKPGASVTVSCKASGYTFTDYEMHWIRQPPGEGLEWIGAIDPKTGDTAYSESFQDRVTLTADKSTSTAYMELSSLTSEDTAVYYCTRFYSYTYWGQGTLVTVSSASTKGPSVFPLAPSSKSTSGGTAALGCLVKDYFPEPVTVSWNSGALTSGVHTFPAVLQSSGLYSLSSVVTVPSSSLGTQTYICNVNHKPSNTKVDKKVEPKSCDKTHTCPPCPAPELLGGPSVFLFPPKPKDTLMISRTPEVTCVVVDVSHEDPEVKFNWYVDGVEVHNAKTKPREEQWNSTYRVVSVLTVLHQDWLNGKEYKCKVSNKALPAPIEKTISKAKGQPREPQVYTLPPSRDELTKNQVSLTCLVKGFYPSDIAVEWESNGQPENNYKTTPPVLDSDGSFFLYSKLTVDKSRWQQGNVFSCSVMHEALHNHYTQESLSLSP
light: DIVMTQSPLSLPVTPGEPASISCQASESLVHSNRNTYLHWYLQKPGQSPQLLIYKVSNRFSGVPDRFSGSGSGTDFTLKISRVEAEDVGVYYCSQNTHVPPTFGQGTKVEIERTVAAPSVFIFPPSDEQLKSGTASVVCLLNNFYPREAKVQWKVDNALQSGNSQESVTEQDSKDSTYSLSSTLTLSKADYEKHKVYACEVTHQGLSSPVTKSFNRGEC
notes: as for B1
B18: GpH7-B3 variant S267_02A/GpL16-k0 (antibody, human IgG1, kappa)
heavy: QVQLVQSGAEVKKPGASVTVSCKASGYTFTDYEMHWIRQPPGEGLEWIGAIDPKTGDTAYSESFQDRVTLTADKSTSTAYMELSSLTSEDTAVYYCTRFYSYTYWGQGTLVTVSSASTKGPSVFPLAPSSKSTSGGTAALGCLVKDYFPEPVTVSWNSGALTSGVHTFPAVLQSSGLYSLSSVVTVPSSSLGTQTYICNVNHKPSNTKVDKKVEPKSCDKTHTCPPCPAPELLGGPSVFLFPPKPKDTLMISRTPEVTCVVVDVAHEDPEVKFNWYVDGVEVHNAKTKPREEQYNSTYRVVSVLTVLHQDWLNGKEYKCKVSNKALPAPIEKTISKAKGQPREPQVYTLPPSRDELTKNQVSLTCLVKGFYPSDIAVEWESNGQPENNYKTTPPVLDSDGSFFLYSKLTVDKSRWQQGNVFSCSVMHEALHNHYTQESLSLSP
light: DIVMTQSPLSLPVTPGEPASISCQASESLVHSNRNTYLHWYLQKPGQSPQLLIYKVSNRFSGVPDRFSGSGSGTDFTLKISRVEAEDVGVYYCSQNTHVPPTFGQGTKVEIERTVAAPSVFIFPPSDEQLKSGTASVVCLLNNFYPREAKVQWKVDNALQSGNSQESVTEQDSKDSTYSLSSTLTLSKADYEKHKVYACEVTHQGLSSPVTKSFNRGEC
notes: as for B1
B19: GpH7-B3 variant T335_08L/GpL16-k0 (antibody, human IgG1, kappa)
heavy: not shown
light: DIVMTQSPLSLPVTPGEPASISCQASESLVHSNRNTYLHWYLQKPGQSPQLLIYKVSNRFSGVPDRFSGSGSGTDFTLKISRVEAEDVGVYYCSQNTHVPPTFGQGTKVEIERTVAAPSVFIFPPSDEQLKSGTASVVCLLNNFYPREAKVQWKVDNALQSGNSQESVTEQDSKDSTYSLSSTLTLSKADYEKHKVYACEVTHQGLSSPVTKSFNRGEC
notes: as for B1
B20: GpH7-B3 variant T335_16H/GpL16-k0 (antibody, human IgG1, kappa)
heavy: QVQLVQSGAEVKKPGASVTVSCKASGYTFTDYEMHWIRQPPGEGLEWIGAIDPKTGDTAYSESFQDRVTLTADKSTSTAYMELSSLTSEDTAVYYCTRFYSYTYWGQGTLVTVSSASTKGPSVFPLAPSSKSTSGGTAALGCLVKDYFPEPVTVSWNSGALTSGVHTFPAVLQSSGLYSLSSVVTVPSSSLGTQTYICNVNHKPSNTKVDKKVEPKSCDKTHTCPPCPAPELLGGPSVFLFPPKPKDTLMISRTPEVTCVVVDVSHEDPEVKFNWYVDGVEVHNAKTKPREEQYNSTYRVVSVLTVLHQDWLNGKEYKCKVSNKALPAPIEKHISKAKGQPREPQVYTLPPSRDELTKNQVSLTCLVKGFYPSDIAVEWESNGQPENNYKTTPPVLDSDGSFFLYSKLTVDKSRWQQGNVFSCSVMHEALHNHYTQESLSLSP
light: DIVMTQSPLSLPVTPGEPASISCQASESLVHSNRNTYLHWYLQKPGQSPQLLIYKVSNRFSGVPDRFSGSGSGTDFTLKISRVEAEDVGVYYCSQNTHVPPTFGQGTKVEIERTVAAPSVFIFPPSDEQLKSGTASVVCLLNNFYPREAKVQWKVDNALQSGNSQESVTEQDSKDSTYSLSSTLTLSKADYEKHKVYACEVTHQGLSSPVTKSFNRGEC
notes: as for B1

Molecular target: T1, FcγRIIa R (human, UniProt P12318 34-217)
T1 construct: extracellular domain; Soluble extracellular domain with C-terminal His tag, expressed in FreeStyle293 cells; also called FcgRIIa R; FcγRIIa type R; not shown: His tag attached to the C terminus
T1 sequence (looked up): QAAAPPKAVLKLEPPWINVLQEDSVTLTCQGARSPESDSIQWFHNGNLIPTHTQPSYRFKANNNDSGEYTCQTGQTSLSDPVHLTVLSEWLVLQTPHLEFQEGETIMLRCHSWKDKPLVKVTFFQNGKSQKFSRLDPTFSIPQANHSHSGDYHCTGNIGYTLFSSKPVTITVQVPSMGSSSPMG
Assay: SPR (Biacore), antibody captured via antigen peptide, FcγRIIa R as analyte; homodimerized antibody
Method: Analysis of interaction between objective antibody and the FcγR was carried out using Biacore T100 (GE Healthcare). HBS-EP+ (GE Healthcare) was used as the running buffer, and the measurement temperature was set to 25° C. Chips produced by immobilizing the antigen peptide by the amine coupling method to a Series S Sencor Chip CM5 (GE Healthcare), or alternatively, chips produced by allowing preliminarily biotinylated antigen peptides to interact with and immobilize onto a Series S Sensor Chip SA (certified) (GE Healthcare) were used. Antibodies of interest were captured onto an antigen peptide-immobilized chip, and allowed to interact to each FcγR diluted with running buffer. To regenerate and repeatedly use the chip, the antibodies captured on the chip were washed off by reacting 10 mM glycine-HCl, pH 1.5.

| Binder | Ho/Con_2aR |
| --- | --- |
| B1 | 124 % of control (GpH7-B3/GpL16-k0 = 100) |
| B2 | 116 % of control (GpH7-B3/GpL16-k0 = 100) |
| B3 | 132 % of control (GpH7-B3/GpL16-k0 = 100) |
| B4 | 140 % of control (GpH7-B3/GpL16-k0 = 100) |
| B5 | 148 % of control (GpH7-B3/GpL16-k0 = 100) |
| B6 | 113 % of control (GpH7-B3/GpL16-k0 = 100) |
| B7 | 102 % of control (GpH7-B3/GpL16-k0 = 100) |
| B8 | 146 % of control (GpH7-B3/GpL16-k0 = 100) |
| B9 | 113 % of control (GpH7-B3/GpL16-k0 = 100) |
| B10 | 110 % of control (GpH7-B3/GpL16-k0 = 100) |
| B11 | 157 % of control (GpH7-B3/GpL16-k0 = 100) |
| B12 | 100 % of control (GpH7-B3/GpL16-k0 = 100) |
| B13 | 107 % of control (GpH7-B3/GpL16-k0 = 100) |
| B14 | 142 % of control (GpH7-B3/GpL16-k0 = 100) |
| B15 | 101 % of control (GpH7-B3/GpL16-k0 = 100) |
| B16 | 108 % of control (GpH7-B3/GpL16-k0 = 100) |
| B17 | 107 % of control (GpH7-B3/GpL16-k0 = 100) |
| B18 | 160 % of control (GpH7-B3/GpL16-k0 = 100) |
| B19 | 108 % of control (GpH7-B3/GpL16-k0 = 100) |
| B20 | 102 % of control (GpH7-B3/GpL16-k0 = 100) |
